# Test: yeast display, Sf9 membrane polyspecificity reagent, FACS + sequencing; frameworks hold sequencing errors
# Method in brief: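 Genes from sorted yeast were amplified by colony PCR, read by MiSeq 2 × 250 sequencing and filtered on CDR length. These cells carried a synthetic nanobody library in Saccharomyces cerevisiae BJ5465 and were sorted by FACS into low and high (top ~1%) gates on anti-HA and streptavidin fluorescence. Polyreactivity is labelled according to the gate of origin.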
row,Sequence,polyreactivity (PSR sort gate)
1,QVQLVESGGGLVQAGGSLRLSCAASGSTSRIYGMGWYRQAPGTDRELVAAITRSGNTYADSVKGRFTISRDNANNTDYLQMNSLKPDDTAVYYCATAWRFTYFGYEYWGQGTQVTVSS,high polyreactivity
2,QVQLVESGGGFVQAGGSLRLSCAASGSTFFTNAKGWYRQAPGKERELVAASRWRGGTYYADSVKGRFTISRDNAKKTVYLQMNSLKPEDTPVYDCATSVKTSFDYWRQGTQVTVSS,low polyreactivity
3,QVQLVESGGGLVQAGGSLRLSCAASGSIFTWNGMGWYRQAPGKERELVAAISNGASTNYADSVKGRFTISRDNAKNTVYLQMNSLYPEDTAVYYCAAKSTGRYDYWGQGTQVTVSS,low polyreactivity
4,QVQLVESGGGLVQAGGSLRLSCSASGRTNWLNAMGLYRQAPGKERELVATISSSSGSTTYADSVKGRFTISRDNAKNTVYLQMNSLKPEDTAVYYCNVDDPFYSGVVEFDYWGQGTQVTVSS,low polyreactivity
5,QVQLVDSGGGLVQAGGSLRLSCAASGITIVYYAMGWNRQAPGKERELVAAITRGANTYYADSVKGRFTISRDNAKNTVYLQMNSLKPEDTAVYYCAADGWVGAWWYVLDVRYDYWGQGTQVTVSS,low polyreactivity
6,QVQLVESGGGLVQAGGSLRLSCAASGFIFPYYAMGWYRQAPGKERELVAAITSSGGSTYYADSVKGRFTISRDTAKNTVYLQMTSLKPEDNAVYYCNAYVRRTRDYDYWGQGTQVTVSS,high polyreactivity
7,QVQLVESGGGLVQAGGSLRLSCAASGFTFGIYDMGWYRQAPGKERELVAAISWRGVSTYYADSVKGRFRISRDNAKNTVYLQMNSLKPEDTAVYYCNAVDTDGDLYPINYPYDYGYDYWGQGTQVTVSS,low polyreactivity
8,QVQLVESGGGLVQAGGSLRLSCAASGSIFIVNAMGWNRQAPGKERELVAAISWSGGSTYYADSVKGRFTISRDNAKNTVYLQMNSLKPEDTAVYYCAAKYTLPFRDVKYYSWGQGTQVTVSS,high polyreactivity
9,QVQLVESGGGLVQAGGSLRLSCAASGITFAYNAMGWYRQAPGKERELVARITSGGRTYYADSVKGRFTISRDNAKNTVYLQMKSLKPEDTAVYYCNAKEGSRYRKYDYWGPGTQVTVSS,low polyreactivity
10,QVQLVESGGGLVQAGGSLRLSCAASGRTFGWYTMGWYRKAPGKVRELVAGISSSGGSTYYADSVKGRFTISRDNAKNTVYLQMNSLKPEDTAVYYCARETYPHGLYYRPYDYWGQGTQVTVSS,low polyreactivity
11,QVQLVESGGGLVQAGGILRLSCAASGFTSWDNDMGWYRQAPGKERELVAAISRGGSTNYADSVKGRFTLSRDNAKNTVYLQMNSLKPEDPAVYYCATAAVTPVWYDYWGQGTQVTVSS,low polyreactivity
12,QVQLVESGGGLVQAGGSLRLSCAASGINLNNYPLGSYRQAPGKDRELVAAITSSGTRTYYADSVKGRFTISRDNAKINVYLQMNSLKPEDTAVYYCAAQPVYDLWGQGTQVTVSS,high polyreactivity
13,QVQRVESAGGLVQAGGSLRLSCAPTGSIFSTNPMGWYSQSPGTERELVATITWSDGSTYYADSVKGRFTISRDNAKNTVYLQLNSLKPEDTAVYDCATPYKRDFYKGGDYWAQGTQVTVSS,low polyreactivity
14,QVQLVESGGGLVQAGGSLRLSCAASGRTSDVYAMGWYRQAPGKERALVAAISSGGSTSYADSVKGRFTISRDNAKNTVNLQMNSLKPEDTAVYYCAADSSGQSRFGYWGQGTQVTVSS,low polyreactivity
15,QVQLVESGGGLVQSGGSLRLSCAASGFIFLSYAMGWYRQAPGKERELVAAISRRGGSTYYADSVKGRFTISRDNAKYTVYLQMNSLKPEDNAVYYCAADYGRITYNYWGQGTQVTVSS,high polyreactivity
16,QVQLVESGGGLVQAGGSLRLSCAASGRTLPFNAMGWYRQAPGKERELVAAITRGGSTNYADSVKGRFTISRDNAKNTVYLQMNSLKPEDTAVYYCAARRYAWYGYRAYDYWGQGTQVTVSS,high polyreactivity
17,QVQLVESGGGLVQAGGSLRLSCAASGGIFVTYAMGWYRKAPGKERELLAAISANGGDTYYADSVKGRFTISRDNAKTSVYLQMNRLKPEDTAVYYCAADGFLPILHPVPWSYYYPFGYWGQGTHVTVSS,low polyreactivity
18,QVQLVESGGGLVQAGGSLRLSCAASGITFNAYVMGWYRQAPGKERELVATISQSGGSTYYADSVKGRFTISRDNAKNTVYLQMNSLKPEDTADYYCAARKYGYSYTVTRYYWGQGTQVTVSS,high polyreactivity
19,QVQLVESGGGLVQAGGSLRLSCAASGRIFGGNAMGWYRQAPGKERELVAAISKRGGSTYYADSVKGRFTISRDNAKNTVYLQMNSLKPEDTAVYYCAAGFTAWTGVWYGYWGQGTQVTVSS,high polyreactivity
20,QVQLVESGGGLVQAGGSLRLICAASGFTFTQYVMGWYSQAPGKERELVAAINWSGGNTYYAESVKGRFTISRDNAKNTVYLQMNSLKPEDTAVYYCAAYRHRNGYDYWGQGTQVTVSS,high polyreactivity
21,QVQLVESGGGLVQAGGSLRLSCAASGITFAYYAMGWYRQAPGKERELVAAITRRGSSTYYADSVKGRFTISRDNAKNTVYLQMNSLKPEDTAVYYCAAVAYGRERYDYWGQGTQVTVSS,high polyreactivity
22,QGQLVESGGGLVQAGGSLRLSCAASVFTFAFYTMGWYRQATGKERELVAANTRSGGSTYYPDSVKGRFTISRDNAKNTVYLQRNSLKPEDTPVYYCAARGNTPRTRRYGYWGQGTQVTVSS,high polyreactivity

row,Sequence,polyreactivity (PSR sort gate)
1,QVQLVESGGGLVQAGGSLRLSCAASGFIFRYYTMGWYRQAPGKERELVAAITSGGSTTYADSVKGRFTISRDNAKNTVYFQMNSLKPEDTAVYYCNTAYWYSLYDYWGQGTQVTVSS,high polyreactivity
2,QVHLLESGGGLDHAGGSLRLSCAASGRIFRYYFMGWYRQAPGKERELVAAISRGGRTYYADSVKGRFTISRDNAKNTVYLQMNSLKPEDTAVYYCDAVITQTDTGYGPSFRVYYWGQGTKVTVSS,high polyreactivity
3,QVQLVESGGGLVQAGGSLRLSCAASGFIFATYAMGWYRQAPGKERELVAAISRRGVRTNYADSVKGRFTISRDNAKNTVYLQMNSLKQEDTAVYYCNAQSHYGKIPMYYWGQGTQVTVSS,high polyreactivity
4,QVQLVESGGGLVQAGGSLRLSCAASGRTFLKNAMGWYRQAPGKERELVAAITSGGSTNYADSVKGRFTISRDNAKNTVYLQMNSLKPEDTAVYYCNAPSYWYYPVLGSFLTFDYWGQGTQVTVSS,low polyreactivity
5,QVQHVESAAGLVQAGGSLRLSCDPSGIIFGRYAMGLYRHAPGKEREFVAAITWSGGSTYYADSVKGRFTISRDNAKNTVYLQMNSLKPEDTAVYYCAADTWYRYDYWGQGTQVTVSS,low polyreactivity
6,QVQIVESCGALVQAGRSLSLSCAASGSTFWDNVMGSYRQAPGKERELVAASTSGGSTNYADSVKGRFTISRDNAMNTDYLQLNSLIPEDTAVYYCAAGWYLYVLPYRYYYWRQGTQVTVSS,low polyreactivity
7,QVQLVESGGGLVQAGGSLRLSCAASGFTFRYYAMGWYRQAPGKERELVAAISSRGGTTYYADSVKGRFTISRDNAKNTVYLQMNSLKPEDTAVYYCAAVRPPSYYYWGQGTQVTVSS,high polyreactivity
8,QVQLVESGGGLVQAGGSLRLSCAASGSIFTGYAMGWYRQAPGKERELVAGISWGGTSTYYADSVKGRFTISRDNAKYTVYLQMNSLKPEDTAVYYCSAVRGKYGYLTTPDWFDYWGQGTQVTVSS,high polyreactivity
9,QVQLVESGGGLVQAGGSLRLSCASSGYTFYAYAMGWYRQAPGKERELVAAISGSGGNTRYADSVKGRFTISRDNAKNTVYLQMNILKPEDTAVYYCAKRIIRSPFGAYGYWGQGTQVTVSS,high polyreactivity
10,QVQLVESGGGLVQAGGSLRLSCAASGLTFVDNAMGWYRQAPRKERELVAGITQSGGSTNYADSVKGRFTISRDNAKNTVYLQMNSLKPEDTAVYYCAKDTYRAYFRWEYGYWGQGTQVTVSS,low polyreactivity
11,QVQLVESGGGLVQAGGSLRLSCAASGRTFFIYAMGWYRQAPGKERELVAAIRWRGGSTYYADSVKGRFTISRDNAKNTVYLQMNSLKPEDTAVYYCAASNRQARYEDYYWGQGTQVTVSS,high polyreactivity
12,QVQLVESGGGLVQAGGSLRLSCAASGSMFYYYAMGWYRQAPGKERELVAAISSAGITNYADSVKGRFTISRDNAKNTVYLQMNSLKPEDTAVSYCAAAVFDIYWFLGEAYYFQYDYWGQGTQVTVSS,high polyreactivity
13,QVQLQESGGGLVQAGGSLRPSCAASGSISDGVPMGWYRQAPGEERELVATTVLGATTNYADSVKGRFTISRGNAKNTVYLQMNSLKPEETEVYYCAAPLRYDKGFSYWGQGTQVTVSS,low polyreactivity
14,QVQLVESGGGLFQAGGSLSLSCAASGFIFSGYAMGWYRQAPGTERELVAAITWSCSNTFYADSVKGRFTISRDNAKITVFLQMNSLKPEDTAVYYCTAVSKYKRSDYYYWGQGTQVTVSS,high polyreactivity
15,QVQLVESGGGLVQAGGSLRLICAASGFTFGYYAMGWYRQAPGKEREFVARISWSGDSTYYADSVKGRFTISRDNAKNTVYLQMTSLKPEDTAVYYCAARFTRQMYYWGQGTQVTVSS,high polyreactivity
16,QVQQVESGGGLVQAGGSLRLSCAATGIIFNDYHMGWYRQAPGKERELVAAINYSGGSTYYADSVKGRFTISRDNAKNTVYLQMNSLKPEDTAVYYCAADNAVWEYDYWGQGTQVTVSS,low polyreactivity
17,QVQLVESGGCLVQAGCSLRLSCAASGSTLWWYDMGWYRQAPGKERELVAAINSGGSTNYADSVKGRFTISRDNAKNTVYLQMNSLKAEDTAVYYCNTDGEVTYDYWGQGTQVTVSS,low polyreactivity
18,QVQLVESGGGLVQAGGSLRLSCAASGRTFYYYAMGWYRQAPGKERELVADITYSGGSTYYADSVKGRFTISRDNAKNTVYLQMNSLKPEDTAVYYCAARVTVSHWPYYYDSYDYWGQGTQVTVSS,low polyreactivity
19,QVQLVESAGGLVQAGGSLRLSCAASGSTLYQYTMGWYRQAPGKERELVAAISRSGGRTYYADSVKGRFTISRDNAKNTVYLQMNSLKPEDTAVYYCAVDPGAYDSWGQGTQVTVSS,high polyreactivity
20,QVQLVESGGGLVQAGGSLRLSCAASGRIITTYAMGWYRQAPGKERELVAAISRSSGSTYYADSVKGRFTISRDNAKNTVYLQMNSLKPEDTAVYYCNAYQRKSGRYDYWGQGTQVTVSS,high polyreactivity
21,QVQLVESGGGLVQAGGSLRLSCAASGSTFTKNVMGWYRQAPGKERELVAAISSGGRTNYADSVKGRFTISRDNAKNTVYLQMNSLKPEDTAVYYCAADVGYFKSDYWGQGTQVTVSS,low polyreactivity

# Source: the nanobody polyreactivity screen of Harvey et al. (2022)
